Measured values taken from patent US20030166537A1, “Use of GDNF for treating corneal defects” (Biopharm Gesellschaft Zur Biotechnologischen Entwicklung …, priority 1999, published 2003).

Columns and labels:
[1] = system: primary human corneal stromal cells; assay: proliferation of cultured stromal keratocytes (cell counting, Cell Titer 96 AQueous assay); assay type: cell-based; details: 20 or 100 ng/ml; serum-free medium; D6; p<0.005
Experimental: In order to investigate the effect of GDNF on the proliferation of cultured stromal keratocytes the cells were passaged from DMEM +10% FBS into DMEM +1% FBS or into DMEM without FBS at a density of 5×10^4 cells/60 mm dish. Some cultures received recombinant human GDNF at the above-mentioned concentrations. Proliferation was measured after 6 days by counting cells under the phase contrast microscope (50 fields at 100×magnification per condition) as well as trypsinized cells. Also a Cell Titer 96 AQueous One Solution proliferation assay (Promega) was performed according to the manufacturess description. For this calorimetric assay 500 or 1000 cells were grown for 6 days in 96-well-plates (Falcon). Upon addition to the culture well a titrazolium dye is bioreduced by cells into a colored formazan product and the absorbance is quantified at 490 nm. The quantity of the formazan product is proportional to the number of living cells in the well and can therefore serve to estimate proliferation.

[2] = system: FAK, Pyk2, cRaf, MEK1, Erk 1 and 2, Elk, RSK; assay: western blot of phosphorylated intracellular signaling proteins in corneal epithelial cells; assay type: cell-based, human
Experimental: In order to investigate which protein kinase cascades are activated by GDNF and artemin, corneal epithelial cells from the cell line were seeded at a density of 5×10^5 cells/75 cm^2 and cultured in SHEM with 10% FBS for one day. Cultures were then washed with PBS and incubated in serum-free SHEM without additives or with GDNF (200 ng/ml) or with artemin (250 ng) for 10 to 40 minutes. After washing with PBS, cultured cells were solubilized in lysis buffer containing 50 mM Tris2Cl (pH8.0), 150 mM NaCl, 0.02% sodium azide, 100 μg/ml phenylmethylsulfonyl fluoride, 1 mM Na3VO4, 1% Triton X-100 and a mixture of several protease inhibitors [complete™, Boehringer Mannheim (1 tablet/30 ml buffer)]. 80 μg total protein per lane was fractionated by NuPAGE 10% SDS-MOPS-Bis-Tris gel or NuPAGE 3-8% Tris-acetate gel (all from NOVEX, San Diego, Calif.) and blotted onto a nitrocellulose membrane. Phosphorylated proteins were detected with phospho-specific antibodies and visualized with the ECL western blot analysis system (Amersham). Antibodies against phospho-Raf(ser259), phospho-MEK1/2(ser217/221), phospho-MAPK (Erk1/2) (thr202/tyr204), phospho-p90 ribosomal S6 kinase (RSK) (ser381) and phospho-Elk-1(ser383) were obtained from New England Biolabs (Beverly, Mass.). Antibody against phospho-FAK (tyr397/tyr407/tyr576/tyr577/tyr861/tyr925) and phospho-Pyk2 (tyr402/tyr579/tyr/580/tyr881) were purchased from Biosource (Camarillo, Calif., USA). A monoclonal antibody against phospho-tyrosine came from Sigma (Deisenhofen, Germany).

[3] = system: primary human corneal epithelial cells; assay: in vitro wound healing assay (scratch wound), primary cells; assay type: cell-based; details: 250 ng/ml; 18 h; control less than 10%
Experimental: (§1) For in vitro wound healing assays primary corneal epithelial cells and cells from the corneal epithelial cell line were seeded at a density of 5×10^5 onto 60 mm plastic dishes with 2 mm grid (Sarstedt, Numbrecht, Germany) and cultured for 2 days until subconfluency. For experiments with artemin primary cultured rabbit corneal epithelial cells were used. These cells had been isolated with Dispase (1,2 U/ml) and trypsin/EDTA. Rabbit cells had been cultured in medium 500 with additives (Cascade Biologies).
The cell layer was injured under the microscope by inducing several parallel scratches with a soft plastic cell scrubber (Falcon, Becton and Dickinson, Heidelberg, Germany). The tip of the scrubber was cut and measured about 1 mm and consequently the width of the scratch in the cell layer was also about 1 mm. Selected areas in the dishes were marked with a very fine marker pen and consecutive images were taken at different time points at 5×magnification under an inverted phase contrast microscope (Axiovert 25, Zeiss, Jena, Germany) equipped with a video camera. Following the experimental injury dishes were incubated in SHEM medium either containing no growth factors (control) or containing either GDNF (250 ng/ml) (recombinant human GDNF expressed in E. coli), NGF (250 ng/ml) (Boehringer Mannheim, Germany) or EGF ([…]). For experiments investigating artemin cells were cultured in medium 500 without additives and 250 ng artemin was added. For each condition four representative areas were evaluated within three dishes. The mean diameter of the scratch in each representative area was set as 100% at the beginning of the experiment. 18 hours later the mean diameter of the same scratch was calculated again and expressed in percent of the diameter at the beginning of the experiment.

corneal epithelial cells [4] = assay: modified Boyden chamber migration assay; assay type: cell-based; details: 250 ng/ml in lower well
Experimental: In order to further evaluate the chemotactic effect of GDNF on corneal epithelial cells, a modified Boyden chamber assay was used. 4×10^5 cells from the either primary cultured cells or the corneal epithelial cell line were seeded onto tissue culture inserts containing a polyethylene terephthalate (PET) filter having a pore size of 8 μm (Falcon). Within 4 hours after seeding most cells had attached to the filter and formed a semiconfluent monolayer. The medium was then changed to SHEM without additives in the upper well and SHEM with GDNF (250 ng/ml) in the lower well. After 24 h of culture cells were removed from the surface of the insert by gentle scrubbing with a rubber policeman. Cells on the bottom of the insert (which had migrated through the filter) were fixed with −20° C. methanol and stained with crystal violet. The entire surface of the filters was screened for cells under the microscope.

corneal epithelial cells [5] = assay: in vitro wound healing model with herbimycin A; assay type: cell-based; details: 250 ng/ml GDNF alone; 18 hours
Experimental: as §1
The cell layer was injured under the microscope by inducing several parallel scratches with a soft plastic cell scrubber (Falcon, Becton and Dickinson, Heidelberg, Germany). The tip of the scrubber was cut and measured about 1 mm and consequently the width of the scratch in the cell layer was also about 1 mm. Selected areas in the dishes were marked with a very fine marker pen and consecutive images were taken at different time points at 5×magnification under an inverted phase contrast microscope (Axiovert 25, Zeiss, Jena, Germany) equipped with a video camera. […] For each condition four representative areas were evaluated within three dishes. […] 18 hours later the mean diameter of the same scratch was calculated again and expressed in percent of the diameter at the beginning of the experiment. […]

[6] = GDNF 200 ng/ml, within 10 minutes
[7] = GDNF 200 ng/ml, within 40 minutes

B1: GDNF: recombinant human GDNF having the amino acid sequence of human wild-type GDNF (GenBank L19063, L15306) (protein)
chain: SPDKQMAVLPRRERNRQAAAANPENSRGKGRRGQRGKNRGCVLTAIHLNVTDLGLGYETKEELIFRYCSGSCDAAETTYDKILKNLSRNRRLVSDKVGQACCRPIAFDDDLSFLDDNLVYHILRKHSAKRCGCI
- proliferation of stromal keratocytes [1]: significantly enhanced
- serine phosphorylation of Elk [2, 6]: significantly induced
- serine phosphorylation of MEK1 [2, 6]: significantly induced
- serine phosphorylation of cRaf [2, 6]: significantly induced
- tyrosine/threonine phosphorylation of Erk 1 and 2 [2, 6]: significantly induced
- phosphorylation of Pyk2 [2, 7]: phosphorylated
- tyrosine phosphorylation of FAK [2, 7]: gradually increased
- phosphorylation of RSK ([2]; in response to GDNF): not detectable
- gap in the cell monolayer filled [3]: 16.5±6%
- increase of number of migrated cells over control (corneal epithelial cells [4]): more than 6 fold
- number of cells migrated through the filter (corneal epithelial cells [4]; 8 μm pore size, 24 h, control 19±6.8): 117±37.6
- wound gap filled with cells (corneal epithelial cells [5]): 37.9±8.1%
